Values of other authors in patent publication US7662384B2, “Use of anti-α5β1 antibodies to inhibit cancer cell proliferation” (Facet Biotech Corporation, priority 2004, dated 2010).
Read-outs that look alike come from different tables or passages of the source.

How the values were obtained:
angiogenesis [1] = conditions: monkey eye model; cited from earlier work
angiogenesis [2] = conditions: rabbit eye model; cited from earlier work

B1: F200: Fab fragment derived from M200 (antibody, chains of the INN, looked up, V domains shown)
VH: QVQLKESGPGLVAPSQSLSITCTISGFSLTDYGVHWVRQPPGKGLEWLVVIWSDGSSTYNSALKSRMTIRKDNSKSQVFLIMNSLQTDDSAMYYCARHGTYYGMTTTGDALDYWGQGTSVTVSS
VL: QIVLTQSPAIMSASLGERVTMTCTASSSVSSNYLHWYQQKPGSAPNLWIYSTSNLASGVPARFSGSGSGTSYSLTISSMEAEDAATYYCHQYLRSPPTFGGGTKLEIK
modifications: Fab
notes: Fab fragment derived from M200
- in vivo anti-angiogenic efficacy (angiogenesis [1]): in vivo anti-angiogenic efficacy
- in vivo anti-angiogenic efficacy (angiogenesis [2]): in vivo anti-angiogenic efficacy
